Laboratory results: paper PMC9482650, “Quantitative fragmentomics allow affinity mapping of interactomes” (Nature Communications, 2022)

T1: PDZD2_3, O15018
T1 sequence (O15018 581-682, limits assumed, looked up): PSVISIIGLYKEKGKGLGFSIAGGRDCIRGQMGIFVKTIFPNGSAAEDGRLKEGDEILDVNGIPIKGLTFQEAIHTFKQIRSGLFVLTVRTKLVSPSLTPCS

T2: TJP3_1, O95049
T2 sequence (O95049 6-103, limits assumed, looked up): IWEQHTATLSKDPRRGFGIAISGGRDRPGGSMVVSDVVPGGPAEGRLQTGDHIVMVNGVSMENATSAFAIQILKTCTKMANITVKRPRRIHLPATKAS

T3: CNKSR1, Q969H4
T3 sequence (Q969H4 191-295, limits assumed, looked up): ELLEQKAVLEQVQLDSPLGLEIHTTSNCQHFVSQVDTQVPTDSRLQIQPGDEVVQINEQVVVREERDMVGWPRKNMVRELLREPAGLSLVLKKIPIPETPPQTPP

T4: PTPN13_4, Q12923
T4 sequence (Q12923 1783-1878, limits assumed, looked up): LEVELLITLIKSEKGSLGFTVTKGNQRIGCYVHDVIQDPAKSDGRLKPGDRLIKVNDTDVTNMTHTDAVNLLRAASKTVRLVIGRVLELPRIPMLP

T5: SHROOM4, Q9ULL8
T5 sequence (Q9ULL8 5-102, limits assumed, looked up): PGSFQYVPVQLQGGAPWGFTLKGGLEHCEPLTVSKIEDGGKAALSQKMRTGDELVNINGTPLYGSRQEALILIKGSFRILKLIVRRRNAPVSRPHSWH

T6: NHERF1_2, O14745
T6 sequence (O14745 149-244, limits assumed, looked up): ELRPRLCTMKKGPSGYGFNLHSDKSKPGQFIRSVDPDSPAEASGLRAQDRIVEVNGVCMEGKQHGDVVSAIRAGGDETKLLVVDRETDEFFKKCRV

T7: USH1C_2, Q9Y6N9
T7 sequence (Q9Y6N9 206-303, limits assumed, looked up): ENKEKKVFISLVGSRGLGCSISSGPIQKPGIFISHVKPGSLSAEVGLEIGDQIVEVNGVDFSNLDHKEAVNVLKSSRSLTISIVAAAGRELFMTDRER

T8: SNTB2, Q13425
T8 sequence (Q13425 110-208, limits assumed, looked up): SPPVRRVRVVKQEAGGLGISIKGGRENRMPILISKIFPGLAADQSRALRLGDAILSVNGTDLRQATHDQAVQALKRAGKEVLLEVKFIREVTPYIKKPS

T9: PDZD7_2, Q9H5P4
T9 sequence (Q9H5P4 205-303, limits assumed, looked up): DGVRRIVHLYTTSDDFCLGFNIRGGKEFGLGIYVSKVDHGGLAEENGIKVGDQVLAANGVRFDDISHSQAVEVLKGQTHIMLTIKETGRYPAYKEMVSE

T10: MPDZ_2, O75970
T10 sequence (O75970 252-347, limits assumed, looked up): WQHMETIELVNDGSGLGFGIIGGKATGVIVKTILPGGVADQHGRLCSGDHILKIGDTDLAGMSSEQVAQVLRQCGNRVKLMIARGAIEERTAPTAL

T11: PTPN13_5, Q12923
T11 sequence (Q12923 1877-1975, limits assumed, looked up): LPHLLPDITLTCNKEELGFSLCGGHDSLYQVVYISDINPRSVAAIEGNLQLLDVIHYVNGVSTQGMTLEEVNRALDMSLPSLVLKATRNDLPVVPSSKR

T12: APBA3_2, O96018
T12 sequence (O96018 480-570, limits assumed, looked up): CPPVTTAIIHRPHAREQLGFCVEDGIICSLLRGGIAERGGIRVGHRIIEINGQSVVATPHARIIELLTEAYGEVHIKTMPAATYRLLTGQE

B1: ASIC3, Q9UHC3 (peptide)
chain: HRTCYLVTQL
B2: DGKK, Q5KSL6 (peptide)
chain: DPLTPSRSQL

Columns and labels:
Assay in all cases: holdup assay
Parameters in all cases: key: below the threshold = too weak to quantify, mostly under pKd 3.1 to 4
Settings in all cases: plain residues with an end cap or a label only (N-terminal biotin on a linker: ttds)
[1] = biological target: T1, PDZD2_3, O15018
[2] = biological target: Q96HC4
[3] = biological target: T2, TJP3_1, O95049
[4] = biological target: T3, CNKSR1, Q969H4
[5] = biological target: MAGI1_3, Q96QZ7
[6] = biological target: RGS3, P49796-9
[7] = biological target: T4, PTPN13_4, Q12923
[8] = biological target: T5, SHROOM4, Q9ULL8
[9] = biological target: T6, NHERF1_2, O14745
[10] = biological target: Q5TCQ9
[11] = biological target: PARD3B_3, Q8TEW8
[12] = biological target: O00560
[13] = biological target: T7, USH1C_2, Q9Y6N9
[14] = biological target: O15021
[15] = biological target: T8, SNTB2, Q13425
[16] = biological target: Q6ZWJ1
[17] = biological target: T9, PDZD7_2, Q9H5P4
[18] = biological target: Q96FS4
[19] = biological target: T10, MPDZ_2, O75970
[20] = biological target: NHERF4_3, Q86UT5
[21] = biological target: T11, PTPN13_5, Q12923
[22] = biological target: Q96JB8
[23] = biological target: Q92614
[24] = biological target: PDLIM4, P50479
[25] = biological target: T12, APBA3_2, O96018
[26] = biological target: Q96JY6

Sequence of NHERF4_3, Q86UT5 (Q86UT5 325-412): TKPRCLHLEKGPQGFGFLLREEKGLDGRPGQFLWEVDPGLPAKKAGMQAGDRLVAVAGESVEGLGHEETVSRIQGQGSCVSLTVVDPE
Sequence of PARD3B_3, Q8TEW8 (Q8TEW8 490-594): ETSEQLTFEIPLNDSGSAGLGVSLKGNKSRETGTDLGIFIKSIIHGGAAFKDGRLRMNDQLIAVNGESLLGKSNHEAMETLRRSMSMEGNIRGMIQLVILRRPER
Sequence of RGS3, P49796-9 (P49796 other isoform, or with tags, fused parts or gaps): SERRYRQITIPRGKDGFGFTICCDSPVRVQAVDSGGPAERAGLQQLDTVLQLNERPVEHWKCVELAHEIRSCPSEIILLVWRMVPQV
Sequence of MAGI1_3, Q96QZ7 (Q96QZ7 638-725): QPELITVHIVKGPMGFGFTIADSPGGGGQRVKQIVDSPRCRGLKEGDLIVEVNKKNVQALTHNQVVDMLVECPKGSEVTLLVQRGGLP
Sequence of PDLIM4, P50479 (P50479 1-83): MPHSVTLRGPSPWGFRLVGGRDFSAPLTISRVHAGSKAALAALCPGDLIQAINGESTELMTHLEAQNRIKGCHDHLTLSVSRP

| pKd [1] | pKd [2] | pKd [3] | pKd [4] | pKd [5] | pKd [6] | pKd [7] | pKd [8] | pKd [9] | pKd [10] | pKd [11] | pKd [12] | pKd [13] | pKd [14] | pKd [15] | pKd [16] | pKd [17] | pKd [18] | pKd [19] | pKd [20] | other results | Binder |
| --- | --- | --- | --- | --- | --- | --- | --- | --- | --- | --- | --- | --- | --- | --- | --- | --- | --- | --- | --- | --- | --- |
| below the threshold | below the threshold | below the threshold | below the threshold | below the threshold | 4.32 | below the threshold | below the threshold | 4.35 | below the threshold | below the threshold | below the threshold | below the threshold | below the threshold | below the threshold | below the threshold | below the threshold | below the threshold | below the threshold | 4.13 | pKd [21]: below the threshold; pKd [22]: below the threshold; pKd [23]: below the threshold; pKd [24]: below the threshold; pKd [25]: below the threshold; pKd [26]: below the threshold | B1 |
| below the threshold | below the threshold | below the threshold | 4.3 | below the threshold | below the threshold | below the threshold | below the threshold | below the threshold | below the threshold | below the threshold | below the threshold | below the threshold | below the threshold | below the threshold | below the threshold | below the threshold | below the threshold | below the threshold | below the threshold | pKd [21]: below the threshold; pKd [22]: below the threshold; pKd [23]: below the threshold; pKd [24]: below the threshold; pKd [25]: 4.47; pKd [26]: below the threshold | B2 |
